Target: T1, {Pra}KTFKC plasmin-cleavable peptide, as Cholesterol-KTFKC-PEG2000 (not fully specified)
T1 chain: KTFKC

B1: Human plasmin (protein)
chain: KVYLSECKTGNGKNYRGTMSKTKNGITCQKWSSTSPHRPRFSPATHPSEGLEENYCRNPDNDPQGPWCYTTDPEKRYDYCDILECEEECMHCSGENYDGKISKTMSGLECQAWDSQSPHAHGYIPSKFPNKNLKKNYCRNPDRELRPWCFTTDPNKRWELCDIPRCTTPPPSSGPTYQCLKGTGENYRGNVAVTVSGHTCQHWSAQTPHTHNRTPENFPCKNLDENYCRNPDGKRAPWCHTTNSQVRWEYCKIPSCDSSPVSTEQLAPTAPPELTPVVQDCYHGDGQSYRGTSSTTTTGKKCQSWSSMTPHRHQKTPENYPNAGLTMNYCRNPDADKGPWCFTTDPSVRWEYCNLKKCSGTEASVVAPPPVVLLPDVETPSEEDCMFGNGKGYRGKRATTVTGTPCQDWAAQEPHRHSIFTPETNPRAGLEKNYCRNPDGDVGGPWCYTTNPRKLYDYCDVPQCAAPSFDCGKPQVEPKKCPGRVVGGCVAHPHSWPWQVSLRTRFGMHFCGGTLISPEWVLTAAHCLEKSPRPSSYKVILGAHQEVNLEPHVQEIEVSRLFLEPTRKDIALLKLSSPAVITDKVIPACLPSPNYVVADRTECFITGWGETQGTFGAGLLKEAQLPVIENKVCNRYEFLNGRVQSTELCAGHLAGGTDSCQGDSGGPLVCFEKDKYILQGVTSWGLGCARPNKPGVYVRVSRFVTWIEGVMRNN
  Annexin V staining of immobilized PPNs after plasmin incubation (phosphatidylserine exposure after removal of the PEG cloak): PPNs incubated with ≥50 nM human plasmin had increased Annexin V staining
